The target in one experiment is T1, CITED2 variant 4 218-256 (Homo sapiens, UniProt Q99967, beta3-amino acid replacements in C-terminus).
T1 chain: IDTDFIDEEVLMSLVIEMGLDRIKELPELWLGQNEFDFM
Put plainly: ITC.

The target in experiment [1] is T2, CITED2 variant 3a 218-256 (Homo sapiens, UniProt Q99967, beta3-amino acid replacements in loop (LPEL motif)).
T2 chain: T1 chain
Put plainly: ITC.

The target in a further experiment is T3, CITED2 variant 1 218-256 (Homo sapiens, UniProt Q99967, beta3-amino acid replacements in N-terminal tail).
T3 chain: T1 chain
Put plainly: ITC.

The target of experiment [2] is T4, CITED2 variant 3b 218-256 (Homo sapiens, UniProt Q99967, beta3-amino acid replacements in loop).
T4 chain: T1 chain
Put plainly: ITC.

The target of a further experiment is T5, CITED2 variant 2 218-256 (Homo sapiens, UniProt Q99967, beta3-amino acid replacements in αA helix).
T5 chain: T1 chain
Put plainly: ITC.

The target in experiment [3] is T6, CITED2 variant 3c 218-256 (Homo sapiens, UniProt Q99967, beta3-amino acid replacements in loop).
T6 chain: T1 chain
Put plainly: ITC.

Another experiment has as its target T7, HIF-1α 776-826 (Homo sapiens, UniProt Q16665).
T7 chain: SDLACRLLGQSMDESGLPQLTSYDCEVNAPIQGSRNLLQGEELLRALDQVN
Put plainly: anisotropy.

B1: p300 TAZ1 330-420 (protein)
chain: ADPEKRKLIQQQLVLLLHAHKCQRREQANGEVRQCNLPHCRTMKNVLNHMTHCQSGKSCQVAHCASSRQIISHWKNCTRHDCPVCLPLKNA
On to B1, for which the dissociation constant (Kd) with CITED2 variant 4 218-256 came to 17 nM; in experiment [1] it was 675 nM; with CITED2 variant 1 218-256 it was 19 nM; in experiment [2], 98 nM; with CITED2 variant 2 218-256, 16 nM; in experiment [3], 29 nM. The molecule also gave a Kd with HIF-1α 776-826 of 57 nM.

Source of the values: PMC11289882 (2024).
